# According to patent publication US20180079807A1 (Genentech, published 2018):
# T1: IL-17AA homodimer (human, UniProt Q16552 24-155)
# T1 construct: also called IL-17A homodimer
# T1 sequence: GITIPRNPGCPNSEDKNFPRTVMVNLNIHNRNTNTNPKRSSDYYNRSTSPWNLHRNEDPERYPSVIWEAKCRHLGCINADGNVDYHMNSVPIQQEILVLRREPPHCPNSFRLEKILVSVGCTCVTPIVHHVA
# Molecular target: T1, IL-17AA homodimer
# Test: ELISA, plate coated with IL-17AA; reference of the relative-potency calculation
binder,measurement,value
"anti-IL-17A/F antibody MCAF5352A, Reference Material (composition comprising 2% of the glycosylation variant) (antibody, human IgG1, kappa, V domains shown, Produced in CHO cells; Predominantly the main species, which is not glycosylated in the variable region, with about 2% Peak 1; also called antibody standard; sample with 2% glycosylation variants) VH: EVQLVESGGGLVQPGRSLRLSCAASGFTFDDYAMHWVRQAPGKGLEWVSGINWSSGGIGYADSVKGRFTISRDNAKNSLYLQMNSLRAEDTALYYCARDIGGFGEFYWNFGLWGRGTLVTVSS VL: not shown",binding result,binds
